Patent US20050287542, “Protein binding miniature proteins” (published 2005)

What was measured:
[1] = target: T1, G56 (GCN4 bZIP element) (UniProt P03069 P03069:226-281); assay: EMSA; ddG -2.6 kcal/mol; settings: chain copies: 2 inferred; label: 32P
[2] = target: T1, G56 (GCN4 bZIP element); assay: EMSA; settings: chain copies: 2 inferred; label: 32P

T1 sequence (P03069 226-281, one chain of several): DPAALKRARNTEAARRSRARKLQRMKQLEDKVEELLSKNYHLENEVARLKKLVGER

Binder	binding signal [1]	binding signal [2]
CEBP24 (C/EBP24) (dsDNA) DNA 1: AGTGGAGATTGCGCAATCTCGTGC DNA 2: GCACGAGATTGCGCAATCTCCACT	118 fold specificity ratio for CRE24 over CEBP24	
CRE24 (dsDNA) DNA 1: AGTGGAGATGACGTCATCTCGTGC DNA 2: GCACGAGATGACGTCATCTCCACT		118 fold preference over CEBP24
